The results in this text go back to PMC8229658 (Viruses, 2021).

This assay has as its target T1, Flag-tagged human RuvBL2 (recombinant) (human, UniProt Q9Y230 1-463).
T1 construct: also called Flag-RuvBL2
Kind of assay: pull-down. Particulars: both partners purified.

T1 sequence (Q9Y230 whole entry): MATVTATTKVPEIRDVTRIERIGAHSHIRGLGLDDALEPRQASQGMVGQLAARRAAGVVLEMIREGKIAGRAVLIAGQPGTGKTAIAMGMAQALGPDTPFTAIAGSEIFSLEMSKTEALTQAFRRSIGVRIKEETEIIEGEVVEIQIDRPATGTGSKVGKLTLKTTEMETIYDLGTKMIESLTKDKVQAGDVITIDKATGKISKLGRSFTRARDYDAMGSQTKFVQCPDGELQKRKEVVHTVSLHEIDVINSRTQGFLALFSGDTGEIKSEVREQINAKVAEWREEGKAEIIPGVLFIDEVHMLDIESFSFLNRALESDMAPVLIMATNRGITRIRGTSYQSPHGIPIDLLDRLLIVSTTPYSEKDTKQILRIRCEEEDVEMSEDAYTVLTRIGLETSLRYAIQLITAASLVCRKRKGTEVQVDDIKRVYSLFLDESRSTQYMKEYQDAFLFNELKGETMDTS

B1: GST-tagged RBD (amino acids 1-73) of the NS1 of PR8 virus (domain or fragment)
chain: MDPNTVSSFQVDCFLWHVRKRVADQELGDAPFLDRLRRDQKSLRGRGSTLGLDIETATRAGKQIVERILKEES
notes: also called GST-RBD
In the case of B1, the binding result was “binds”.
